First the molecules themselves.
B1: unnamed (protein)
chain 1: EVQLVESGGGVVQPGKSLRLSCAASGLTFSSYAVHWVRQAPGKGLEWVTLISYDGANQYYADSVKGRFTISRDNSKNTVYLQMNSLRPEDTAVYYCAVPGPVFGIFPPWSYFDNWGQGILVTVSS
chain 2: EIVLTQSPATLSVSPGERATLSCRASQVISHNLAWYQQKPGQAPRLLIYGASTRASGIPARFSGSGSGTDYTLTITSLQSEDFAVYYCQHYSNWPPRLTFGGGTKVEIK
B2: unnamed (protein)
chain 1: EVQLVESGGGLVQPGGSLRLSCAASGFFITNNYWGWVRQAPGKGLEWVGYISYSGSTSYNPSLKSRFTISRDTSKNTFYLQMNSLRAEDTAVYYCARTGSSGYFDFWGQGTLVTVSS
chain 2: DIQMTQSPSSLSASVGDRVTITCRASESVDDLLHWYQQKPGKAPKLLIKYASQSISGVPSRFSGSGSGTDFTLTISSLQPEDFATYYCQQGNSLPNTFGQGTKVEIK
B3: unnamed (protein)
chain 1: QVQLQESGPGLVRPSQTLSLTCTVSGFTFTDFYMNWVRQPPGRGLEWIGFIRDKAKGYTTEYNPSVKGRVTMLVDTSKNQFSLRLSSVTAADTAVYYCAREGHTAAPFDYWGQGSLVTVSS
chain 2: DIQMTQSPSSLSASVGDRVTITCKASQNIDKYLNWYQQKPGKAPKLLIYNTNNLQTGVPSRFSGSGSGTDFTFTISSLQPEDIATYYCLQHISRPRTFGQGTKVEIK
B4: unnamed (protein)
chain 1: QVQLVESGGGVVQPGRSLRLSCAASGFTFSSYDMSWVRQAPGKGLEWVAKVSSGGGSTYYLDTVQGRFTISRDNSKNTLYLQMNSLRAEDTAVYYCARHLHGSFASWGQGTTVTVSS
chain 2: EIVLTQSPATLSLSPGERATLSCQASQSISNFLHWYQQRPGQAPRLLIRYRSQSISGIPARFSGSGSGTDFTLTISSLEPEDFAVYYCQQSGSWPLTFGGGTKVEIK
B5: unnamed (protein)
chain 1: EVQLVQSGAEVKKPGSSVKVSCKASGYTITDSNIHWVRQAPGQSLEWIGYIYPYNGGTDYNQKFKNRATLTVDNPTNTAYMELSSLRSEDTAFYYCVNGNPWLAYWGQGTLVTVSS
chain 2: DIQLTQSPSTLSASVGDRVTITCRASESLDNYGIRFLTWFQQKPGKAPKLLMYAASNQGSGVPSRFSGSGSGTEFTLTISSLQPDDFATYYCQQTKEVPWSFGQGTKVEVK
B6: unnamed (protein)
chain 1: QVQLVESGGGLVQPGGSLRLSCAASGFTFRSYAMSWVRQAPGKGLEWVSAISGRGDNTYYADSVKGRFTISRDNSKNTLYLQMNSLRAEDTAVYYCAKMTSNAFAFDYWGQGTLVTVSS
chain 2: QSVLTQPPSVSGAPGQRVTISCTGSSSNIGAGYGVHWYQQLPGTAPKLLIYGNTNRPSGVPDRFSGFKSGTSASLAITGLQAEDEADYYCQSYDSSLSGWVFGGGTKLTVL
B7: unnamed (protein)
chain 1: QVQLVQSGAEVKKPGSSVKVSCKASGYTFGNYWMQWVRQAPGQGLEWMGAIYEGTGKTVYIQKFADRVTITADKSTSTAYMELSSLRSEDTAVYYCARLSDYVSGFGYWGQGTTVTVSS
chain 2: DIQMTQSPSSLSASVGDRVTITCRASKDISKYLNWYQQKPGKAPKLLIYYTSGYHSGVPSRFSGSGSGTDFTLTISSLQPEDFATYYCQQGDALPPTFGGGTKVEIK
B8: unnamed (protein)
chain 1: QVELVESGGGLVQPGGSLRLSCAASGFTFSSYAMSWVRQAPGKGLEWVSAINASGTRTYYADSVKGRFTISRDNSKNTLYLQMNSLRAEDTAVYYCARGKGNTHKPYGYVRYFDVWGQGTLVTVSS
chain 2: DIVLTQSPATLSLSPGERATLSCRASQSVSSSYLAWYQQKPGQAPRLLIYGASSRATGVPARFSGSGSGTDFTLTISSLEPEDFATYYCLQIYNMPITFGQGTKVEIK
B9: unnamed (protein)
chain 1: QVQLVESGGGVVQPGRSLRLSCAASGFTFSSFGMHWVRQAPGKGLEWVAVISFDGSIKYSVDSVKGRFTISRDNSKNTLFLQMNSLRAEDTAVYYCARDRLNYYDSSGYYHYKYYGMAVWGQGTTVTVSS
chain 2: QSVLTQPPSVSAAPGQKVTISCSGSSSNIGNNYVSWYQQLPGTAPKLLIYDNNKRPSGIPDRFSGSKSGTSTTLGITGLQTGDEADYYCGTWDSRLSAVVFGGGTKLTVL
B10: unnamed (protein)
chain 1: QVQLQESGPGLVKPSETLSLTCAVSGGSISGGYGWGWIRQPPGKGLEWIGSFYSSSGNTYYNPSLKSQVTISTDTSKNQFSLKLNSMTAADTAVYYCVRDRLFSVVGMVYNNWFDVWGPGVLVTVSS
chain 2: ESALTQPPSVSGAPGQKVTISCTGSTSNIGGYDLHWYQQLPGTAPKLLIYDINKRPSGISDRFSGSKSGTAASLAITGLQTEDEADYYCQSYDSSLNAQVFGGGTRLTVL
B11: unnamed (protein)
chain 1: EVQLVESGGGVVQPGRSLRLSCSASGFTFSGYGLSWVRQAPGKGLEWVAMISSGGSYTYYADSVKGRFAISRDNAKNTLFLQMDSLRPEDTGVYFCARHGDDPAWFAYWGQGTPVTVSS
chain 2: DIQLTQSPSSLSASVGDRVTITCSVSSSISSNNLHWYQQKPGKAPKPWIYGTSNLASGVPSRFSGSGSGTDYTFTISSLQPEDIATYYCQQWSSYPYMYTFGQGTKVEIK
B12: unnamed (protein)
chain 1: EVQLVESGGGLVQPGGSLRLSCAASGFTFSNYWISWVRQAPGKGLEWVAEIRSESDASATHYAEAVKGRFTISRDNAKNSLYLQMNSLRAEDTAVYYCLAYFDYGLAIQNYWGQGTLVTVSS
chain 2: EIVLTQSPATLSLSPGERATLSCKASKRVTTYVSWYQQKPGQAPRLLIYGASNRYLGIPARFSGSGSGTDFTLTISSLEPEDFAVYYCSQSYNYPYTFGQGTKLEIK
B13: unnamed (protein)
chain 1: EVQLQQPGSELVRPGASVKLSCKASGYTFTSYWMHWVKQRPGQGLEWIGNIYPGSRSTNYDEKFKSKATLTVDTSSSTAYMQLSSLTSEDSAVYYCTRNGDYYVSSGDAMDYWGQGTSVTVSS
chain 2: DIQMTQTTSSLSASLGDRVTISCRTSQDIGNYLNWYQQKPDGTVKLLIYYTSRLHSGVPSRFSGSGSGTDFSLTINNVEQEDVATYFCQHYNTVPPTFGGGTKLEIK
B14: unnamed (protein)
chain 1: QVQLVQSGAELKKPGSSVKVSCKASGYIFTSSWINWVKQAPGQGLEWIGRIDPSDGEVHYNQDFKDKATLTVDKSTNTAYMELSSLRSEDTAVYYCARGFLPWFADWGQGTLVTVSS
chain 2: DIQMTQSPSTLSASVGDRVTITCKASENVDTYVSWYQQKPGKAPKLLIYGASNRYTGVPSRFSGSGSGTDFTLTISSLQPDDFATYYCGQSYNYPFTFGQGTKVEVK
B15: unnamed (protein)
chain 1: EVQLVESGGGLVKPGGSLRLSCAASGFPFSKLGMVWVRQAPGKGLEWVSTISSGGGYTYYPDSVKGRFTISRDNAKNSLYLQMNSLRAEDTAVYYCAREGISFQGGTYTYVMDYWGQGTLVTVSS
chain 2: DIVMTQSPLSLPVTPGEPASISCRSSKSLLHRNGITYSYWYLQKPGQSPQLLIYQLSNLASGVPDRFSGSGSGTDFTLKISRVEAEDVGVYYCYQNLELPLTFGQGTKVEIK
B16: unnamed (protein)
chain 1: EVQLVQSGAEVKKPGASVKVSCKASGYTLTSYGISWVRQAPGQGLEWMGWVSFYNGNTNYAQKLQGRGTMTTDPSTSTAYMELRSLRSDDTAVYYCARGYGMDVWGQGTTVTVSS
chain 2: ESALTQPASVSGSPGQSITISCTGTSSDVGGYNSVSWYQQHPGKAPKLMIYEVSNRPSGVSNRFSGSKSGNTASLTISGLQAEDEADYYCNSYTSTSMVFGGGTKLTVL
B17: unnamed (protein)
chain 1: QVQLVQSGAEVKRPGASVKVSCKASGYTFTNDIIHWVRQAPGQRLEWMGWINAGYGNTQYSQNFQDRVSITRDTSASTAYMELISLRSEDTAVYYCAREPLWFGESSPHDYYGMDVWGQGTTVTVSS
chain 2: AIQLTQSPSSLSASVGDRVTITCRASQGISSALAWYQQKPGKAPKLLIYDASSLESGVPSRFSGSGSGTDFTLTISSLQPEDFATYYCQQFNSYPLTFGGGTKVEIK
B18: unnamed (protein)
chain 1: EVQLVESGGGLVQPGGSLRLSCAASGFTLRSYSMNWVRQAPGKGLEWVSYISRSSHTIFYADSVKGRFTISRDNAKNSLYLQMDSLRDEDTAMYYCARVYSSGWHVSDYFDYWGQGILVTVSS
chain 2: B17 chain 2
B19: unnamed (protein)
chain 1: QVQLVQPGAEVKKPGTSVKLSCKASGYTFTTYWMHWVRQAPGQGLEWIGEINPTNGHTNYNQKFQGRATLTVDKSTSTAYMELSSLRSEDTAVYYCARNYVGSIFDYWGQGTLLTVSS
chain 2: DIVMTQSPDSLAMSLGERVTLNCKASENVVSYVSWYQQKPGQSPKLLIYGASNRESGVPDRFSGSGSATDFTLTISSVQAEDVADYHCGQSYNYPYTFGQGTKLEIK

This data set can be described thus: patients with anti-drug antibodies; higher = more immunogenic.
As to B1, the “patients with anti-drug antibodies” value is 1%.

Consider B2, for which the “patients with anti-drug antibodies” value stood at 5%. Regarding B3, the “patients with anti-drug antibodies” value worked out at 5.1%. For the protein B4, the “patients with anti-drug antibodies” value amounted to 0%. Consider B5, for which the “patients with anti-drug antibodies” value turned out to be 0%. Regarding B6, the “patients with anti-drug antibodies” value came out at 2.9%. As for B7, the “patients with anti-drug antibodies” value turned out to be 8.7%. In the case of B8, the “patients with anti-drug antibodies” value amounted to 0%. Regarding B9, the “patients with anti-drug antibodies” value was 2.4%. With B10, the “patients with anti-drug antibodies” value was found to be 0%. Consider B11, for which the “patients with anti-drug antibodies” value was 8.7%. Then B12, with 1.6%. As to B13, the “patients with anti-drug antibodies” value amounted to 0%. Consider B14, for which the “patients with anti-drug antibodies” value is 7.8%. As for B15, the “patients with anti-drug antibodies” value was 6.5%. Turning to B16, the “patients with anti-drug antibodies” value worked out at 0.3%. Regarding B17, the “patients with anti-drug antibodies” value came to 1.7%.

On to B18, for which the “patients with anti-drug antibodies” value was 2.9%. For B19, the “patients with anti-drug antibodies” value stood at 0%.

(Values after the FLAb antibody collection.)
